Key:
FADD [1] = target: T1, FADD (Homo sapiens, UniProt Q13158); assay: FADD phosphorylation in transfected cells; type: cell-based; conditions: 293T cells, co-expression with CLARP
T1 construct: made in house
T1 sequence (Q13158 1-208): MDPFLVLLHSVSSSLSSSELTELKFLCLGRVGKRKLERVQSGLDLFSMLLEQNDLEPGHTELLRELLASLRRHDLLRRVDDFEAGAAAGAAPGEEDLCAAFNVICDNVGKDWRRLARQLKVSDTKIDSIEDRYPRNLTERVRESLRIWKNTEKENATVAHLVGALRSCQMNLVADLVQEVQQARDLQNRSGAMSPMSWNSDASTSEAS
Method: Therefore, next it was determined whether expression of CIPERK can regulate the phosphorylation of FADD in vivo. Expression plasmids producing HA-CLARP, Flag-CIPERK and AU1-FADD were transiently transfected into 293T cells, and the expression of FADD was monitored by immunoblotting with anti-AU1 antibody. Transfection of plasmids producing either FADD or FADD plus CIPERK induced the expression of two closely migrating AU1-tagged FADD proteins of ˜27 kDa (FIG. 12A). In contrast, co-expression of FADD, CIPERK and CLARP induced the expression of two additional FADD bands migrating at ˜30 kDa (FIG. 12A), previously shown to represent phosphorylated FADD [B. Z. Stanger et al., Cell 81:513-523 (1995)]. […] The increased induction of FADD phosphorylation by CLARP was specific in that was not observed when FADD was co-expressed with only CIPERK and caspase-8 (FIG. 12A). Furthermore, FADD phosphorylation was induced by ectopic expression of CD95 (FIG. 12B), a stimulus known to induce CD95 oligomerization and activation [J. P. Medema et al., EMBO J. 16:2794 -2804 (1997); B. Z. Stanger et al., Cell 81:513-523 (1995)].

CLARP [2] = target: T2, CLARP (Homo sapiens, UniProt O15519); assay: Co-immunoprecipitation of RICK with CLARP; type: binding
Method: (§1) The total amount of transfected plasmid DNA was adjusted with pcDNA3 plasmid to be the same within individual experiments. After transfection, 293T cells were harvested at different times and lysed with 0.2% NP-40 isotonic lysis buffer [N. Inohara et al., Proc. Natl. Acad. Sci. U.S.A. 94:10717-10722 (1997)]. The B lymphocyte-derived BJAB cell line was stably trasnfected by electroporation with pcDNA3 or pcDNA3-Flag-RICK (K38M). After selection with […] (1 μg/ml), bulk cell lines were tested for RICK protein expression with anti-Flag antibody by flow cytometric analysis. For immunoprecipitation, 1 mg of soluble protein was incubated with 10 μg/ml of polyclonal anti-Flag, anti-myc or control antibody overnight at 4° C. and tagged proteins were immunoprecipitated with Protein A-Sepharose 4B (Zymed Laboratories Inc.). Immunoprecipitated proteins or total lysates were subjected to 12% SDS-polyacrylamide electrophoresis and immunoblotted with monoclonal antibodies (mAb) to HA (Boeringer Mannheim) or Flag (Kodak).

NF-KB = NF-KB activation by RICK; type: cell-based, human; conditions: 293T cells
[3] = tested on: caspase-1, caspase-2, caspase-3, caspase-4, caspase-8, CED-3, CED-4, Bcl-XL, TRAF2, c-IAP-1, c-IAP-2 or RAIDD; assay: Association of RICK with other apoptosis regulatory proteins; type: binding; conditions: 293T lysates
Method: as §1

293T cells = assay: Apoptosis assay, RICK co-transfection; type: cell-based, human; conditions: 293T cells
Method: as §1
Apoptosis Assays: 5×10^5 293T cells were co-transfected with 0.2 μg of pcDNA3-β-gal plus each expression plasmid in triplicate by the calcium phosphate method as reported [N. Inohara et al., Proc. Natl. Acad. Sci. U.S.A. 94:10717-10722 (1997)]. In some experiments, 20 μM of the caspase inhibitor zVAD-fmk (Enzyme Systems Products) or 12.5 μl of medium from […] cells producing Fas ligand (Immunex Corporation, Seattle, Wash.) was added at 8 hrs after transfection. At 18 or 24 hours after transfection, cells were fixed, stained for β-galactosidase as described [N. Inohara et al., Proc. Natl Acad. Sci. U.S.A. 94:10717-10722 (1997)] and assayed for morphological features of apoptosis. At least 300 hundred blue-staining cells were counted. BJAB apoptosis induced by anti-Apol mAb was determined by flow cytometric analysis of nuclei stained with propidium iodide as described [R. Merino et al., J. Immunol. 155:3830-3838 (1995)]. Statistical significance was determined by one-way ANOVA followed by Student-Neuman-Keuls post-doc comparisons.

CLARP [4] = target: T2, CLARP; assay: Co-immunoprecipitation of RICK with CLARP; type: binding; parameters: expressed in transfected cells; host or cells: human 293T cells; conditions: CLARP-C (residues 246-480)
Method: as §1

FADD [5] = target: T1, FADD; assay: In vitro phosphorylation of recombinant FADD by RICK immunoprecipitates; type: biochemical; conditions: immunoprecipitates from 293T cells, 5 μM [γ-32P]ATP
From the text: CIPERK proteins in total lysate were detected by immunoblotting with mAb to Flag (middle panel). Recombinant FADD on the same filter used in (A) was detected by immunoblotting, with rabbit polyclonal anti-(His)6 antibody (lower panel). Note CIPERK was autophosphorylated. The estimated molecular size is shown on the left [293T cells were transfected with vector control or plasmid expressing Flag-CIPERK (WT) or Flag-CIPERK-K38M (mt), and then CIPERK proteins were immunoprecipitated by mAb to Flag and incubated with recombinant FADD and 5 μM [γ-^32P]ATP].

caspase-8 = target: T3, caspase-8 (Homo sapiens, UniProt Q14790); assay: Caspase enzymatic assay (Ac-DEVD-AMC) after RICK co-transfection; type: biochemical; conditions: immunoprecipitated caspase-8, Ac-DEVD-AMC substrate
T3 construct: expressed in transfected cells; host or cells: human 293T cells
Method: Caspase Enzymatic Assay: The human FADD cDNA was cloned into the BamHI and XhoI sites of pcDNA3-myc to produce C-terminal myc-tagged FADD. 5×10^6 293T cells were transfected with 5 μg of pcDNA3, pcDNA3-caspase-8-AU1 or pcDNA3-caspase-8-mt-AU1 [N. Inohara et al., Proc. Natl. Acad. Sci. U.S.A. 94:10717-10722 (1997)] plus 5 μg of pcDNA3, pcDNA3-FADD-myc or pcDNA3- Flag-RICK. At 16 hours after transfection, cells were harvested and lysed with NP-40 buffer [N. Inohara et al., Proc. Natl. Acad. Sci. U.S.A. 94:10717-10722 (1997)]. AU1-tagged proteins were immunoprecipitated with mAb to AU1 and the Ac-DEVD-AMC cleavage activity was measured as previously described [N. Inohara et al., Proc. Natl. Acad. Sci. U.S.A. 94:10717-10722 (1997)].

BJAB cells = assay: BJAB apoptosis induced by anti-CD95 (anti-APO1) antibody; type: cell-based, human; conditions: BJAB stably expressing the mutant vs control plasmid, PI staining
Method: The total amount of transfected plasmid DNA was adjusted with pcDNA3 plasmid to be the same within individual experiments. After transfection, 293T cells were harvested at different times and lysed with 0.2% NP-40 isotonic lysis buffer [N. Inohara et al., Proc. Natl. Acad. Sci. U.S.A. 94:10717-10722 (1997)]. The B lymphocyte-derived BJAB cell line was stably trasnfected by electroporation with pcDNA3 or pcDNA3-Flag-RICK (K38M). After selection with […] (1 μg/ml), bulk cell lines were tested for RICK protein expression with anti-Flag antibody by flow cytometric analysis. […]
Apoptosis Assays: 5×10^5 293T cells were co-transfected with 0.2 μg of pcDNA3-β-gal plus each expression plasmid in triplicate by the calcium phosphate method as reported [N. Inohara et al., Proc. Natl. Acad. Sci. U.S.A. 94:10717-10722 (1997)]. […] At least 300 hundred blue-staining cells were counted. BJAB apoptosis induced by anti-Apol mAb was determined by flow cytometric analysis of nuclei stained with propidium iodide as described [R. Merino et al., J. Immunol. […] Statistical significance was determined by one-way ANOVA followed by Student-Neuman-Keuls post-doc comparisons.

[6] = target: T4, Flag-tagged RICK (RIP-like interacting CLARP kinase), pcDNA3-Flag-RICK (human, UniProt O43353 11-540, limits assumed); assay: anti-Flag immunoprecipitation from co-transfected 293T cells, anti-HA immunoblot
T4 construct: Entire open reading frame of RICK, expressed in 293T cells; also called CIPERK; Flag-CIPERK; not shown: N-terminal Flag tag
T4 sequence (O43353 other isoform, or with tags, fused parts or gaps limits assumed): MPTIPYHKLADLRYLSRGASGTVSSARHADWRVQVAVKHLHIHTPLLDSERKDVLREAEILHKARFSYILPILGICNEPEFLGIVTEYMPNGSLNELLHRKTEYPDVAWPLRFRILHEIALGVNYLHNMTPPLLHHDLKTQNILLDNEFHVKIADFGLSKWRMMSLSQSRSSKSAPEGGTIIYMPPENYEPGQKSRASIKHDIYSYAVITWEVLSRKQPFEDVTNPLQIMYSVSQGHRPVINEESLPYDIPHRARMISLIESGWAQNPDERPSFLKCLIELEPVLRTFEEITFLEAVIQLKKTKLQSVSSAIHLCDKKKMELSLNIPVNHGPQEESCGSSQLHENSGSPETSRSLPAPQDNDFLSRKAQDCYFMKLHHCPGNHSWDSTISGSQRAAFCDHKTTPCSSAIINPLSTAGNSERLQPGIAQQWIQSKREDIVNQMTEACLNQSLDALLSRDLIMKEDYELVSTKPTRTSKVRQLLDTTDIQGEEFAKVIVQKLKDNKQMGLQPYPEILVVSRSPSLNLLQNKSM

RICK: RIP-like interacting CLARP kinase, protein of 531 amino acids (SEQ ID NO:1)
phosphorylation of FADD in cells (FADD [1]): induced the phosphorylation of FADD in the presence of CLARP | co-immunoprecipitation with CLARP (CLARP [2]; 293T lysates): co-immunoprecipitated | interaction with the N-terminal DED-containing domain of CLARP (CLARP [2]; CLARP-N): not | activation of NFkB (NF-KB): induction of NFkB | association with multiple apoptosis regulatory proteins (caspase-1, -2, -3, -4, -8, CED-3, CED-4, Bcl-XL, TRAF2, c-IAP-1, c-IAP-2, RAIDD) [3]: did not associate | induction of apoptosis by expression of RICK (293T cells; RICK alone): did not | apoptosis induced by FADD, CLARP and caspase-8 (293T cells; co-expression of wt or mutant RICK): enhanced | apoptosis promoted by caspase-8 (293T cells; co-expression with RICK): augmented | apoptosis promoted by caspase-10 (293T cells; co-expression with RICK): augmented | apoptosis induced by caspase-8-mt (293T cells; co-expression with RICK, Cys377 to Ser mutant): did not augment | interaction with the C-terminal caspase-like domain of CLARP (CLARP [4]): interacted | phosphorylation of recombinant FADD (FADD [5]): induced phosphorylation | enzymatic activity of wild-type (wt) caspase-8 (caspase-8): enhanced

RICK-K38M: RICK ATP-binding site mutant, lysine at position 38 replaced by methionine
sensitivity to anti-APO1-induced apoptosis (BJAB cells): significantly less sensitive

B1: caspase-4 (enzyme, UniProt P49662 1-377, looked up, not shown: small tags and cut ends)
chain: MAEGNHRKKPLKVLESLGKDFLTGVLDNLVEQNVLNWKEEEKKKYYDAKTEDKVRVMADSMQEKQRMAGQMLLQTFFNIDQISPNKKAHPNMEAGPPESGESTDALKLCPHEEFLRLCKERAEEIYPIKERNNRTRLALIICNTEFDHLPPRNGADFDITGMKELLEGLDYSVDVEENLTARDMESALRAFATRPEHKSSDSTFLVLMSHGILEGICGTVHDEKKPDVLLYDTIFQIFNNRNCLSLKDKPKVIIVQACRGANRGELWVRDSPASLEVASSQSSENLEEDAVYKTHVEKDFIAFCSSTPHNVSWRDSTMGSIFITQLITCFQKYSWCCHLEEVFRKVQQSFETPRAKAQMPTIERLSMTRYFYLFPGN
binding result [6]: no binding

B2: caspase-8, epitope-tagged (pcDNA3-caspase-8-AU1) (enzyme, human, UniProt Q14790-4 1-496, looked up, not shown: small tags and cut ends)
chain: MDFSRNLYDIGEQLDSEDLASLKFLSLDYIPQRKQEPIKDALMLFQRLQEKRMLEESNLSFLKELLFRINRLDLLITYLNTRKEEMERELQTPGRAQISAYRFHFCRMSWAEANSQCQTQSVPFWRRVDHLLIRVMLYQISEEVSRSELRSFKFLLQEEISKCKLDDDMNLLDIFIEMEKRVILGEGKLDILKRVCAQINKSLLKIINDYEEFSKGEELCGVMTISDSPREQDSESQTLDKVYQMKSKPRGYCLIINNHNFAKAREKVPKLHSIRDRNGTHLDAGALTTTFEELHFEIKPHDDCTVEQIYEILKIYQLMDHSNMDCFICCILSHGDKGIIYGTDGQEAPIYELTSQFTGLKCPSLAGKPKVFFIQACQGDNYQKGIPVETDSEEQPYLEMDLSSPQTRYIPDEADFLLGMATVNNCVSYRNPAEGTWYIQSLCQSLRERCPRGDDILTILTEVNYEVSNKDDKKNMGKQMPQPTFTLRKKLVFPSD
notes: also called AU1-tagged caspase-8; FLICE
binding result [6]: no binding

B3: TRAF2 (other, UniProt Q12933 1-501, looked up, not shown: small tags and cut ends)
chain: MAAASVTPPGSLELLQPGFSKTLLGTKLEAKYLCSACRNVLRRPFQAQCGHRYCSFCLASILSSGPQNCAACVHEGIYEEGISILESSSAFPDNAARREVESLPAVCPSDGCTWKGTLKEYESCHEGRCPLMLTECPACKGLVRLGEKERHLEHECPERSLSCRHCRAPCCGADVKAHHEVCPKFPLTCDGCGKKKIPREKFQDHVKTCGKCRVPCRFHAIGCLETVEGEKQQEHEVQWLREHLAMLLSSVLEAKPLLGDQSHAGSELLQRCESLEKKTATFENIVCVLNREVERVAMTAEACSRQHRLDQDKIEALSSKVQQLERSIGLKDLAMADLEQKVLEMEASTYDGVFIWKISDFARKRQEAVAGRIPAIFSPAFYTSRYGYKMCLRIYLNGDGTGRGTHLSLFFVVMKGPNDALLRWPFNQKVTLMLLDQNNREHVIDAFRPDVTSSSFQRPVNDMNIASGCPLFCPVSKMEAKNSYVRDDAIFIKAIVDLTGL
binding result [6]: no binding

B4: C. elegans CED-3, epitope-tagged (pcDNA3-Ced-3-Flag) (enzyme, UniProt P42573 1-503, looked up)
chain: MMRQDRRSLLERNIMMFSSHLKVDEILEVLIAKQVLNSDNGDMINSCGTVREKRREIVKAVQRRGDVAFDAFYDALRSTGHEGLAEVLEPLARSVDSNAVEFECPMSPASHRRSRALSPAGYTSPTRVHRDSVSSVSSFTSYQDIYSRARSRSRSRALHSSDRHNYSSPPVNAFPSQPSSANSSFTGCSSLGYSSSRNRSFSKASGPTQYIFHEEDMNFVDAPTISRVFDEKTMYRNFSSPRGMCLIINNEHFEQMPTRNGTKADKDNLTNLFRCMGYTVICKDNLTGRGMLLTIRDFAKHESHGDSAILVILSHGEENVIIGVDDIPISTHEIYDLLNAANAPRLANKPKIVFVQACRGERRDNGFPVLDSVDGVPAFLRRGWDNRDGPLFNFLGCVRPQVQQVWRKKPSQADILIAYATTAQYVSWRNSARGSWFIQAVCEVFSTHAKDMDVVELLTEVNKKVACGFQTSQGSNILKQMPEMTSRLLKKFYFWPEARNSAV
notes: not shown: position and
binding result [6]: no binding
